From patent US8026342B2, “Compositions and methods for binding sphingosine-1-phosphate” (Lpath, Inc., priority 2006, dated 2011)

B1: LT1002: murine anti-S1P monoclonal antibody, IgG1 kappa, from hybridoma clone 306D326.26 (antibody, listed as Mus sp., V domains shown)
VH: QAHLQQSDAELVKPGASVKISCKVSGFIFIDHTIHWMKQRPEQGLEWIGCISPRHDITKYNEMFRGKATLTADKSSTTAYIQVNSLTFEDSAVYFCARGGFYGSTIWFDFWGQGTTLTVS
VL: ETTVTQSPASLSMAIGEKVTIRCITTTDIDDDMNWFQQKPGEPPNLLISEGNILRPGVPSRFSSSGYGTDFLFTIENMLSEDVADYYCLQSDNLPFTFGSGTKLEIK

Experiments:
[1] = LT1009 formulation stability study (visual inspection, syringeability, SE-HPLC); assay type: physicochemical; conditions: independent of antibody concentration
Description: Preferred formulations should not only stabilize the antibody, but also be tolerated by patients when injected. […] Additionally, three different storage temperatures (5° C., 25° C., and 40° C.) were also examined (representing actual, accelerated, and temperature stress conditions, respectively). Stability was assessed using representative samples taken from the various formulations at five different time points: at study initiation and after two weeks, 1 month, 2 months, and 3 months. At each time point, testing involved visual inspection, syringeability (by pulling through a 30-gauge needle), and size exclusion high performance liquid chromatography (SE-HPLC). Circular dichroism (CD) spectroscopy was also used to assess protein stability since above a certain temperature, proteins undergo denaturation, followed by some degree of aggregate formation. The observed transition is referred to as an apparent denaturation or “melting” temperature (Tm) and indicate the relative stability of a protein. […]
For a given time point, aliquots from each sample were subjected to a series of standard analyses, including visual inspection, syringeability, pH, SDS-PAGE (under both reducing and non-reducing conditions), SE-HPLC, and IEF. Protein concentrations were determined by UV spectroscopy (OD-280). […]

[2] = system: experimental autoimmune encephalomyelitis; assay: MOG35-55 induced EAE model of multiple sclerosis; assay type: in vivo, C57BL/6J mice
Description: Experimental protocol—the following experiments were conducted in the laboratory of Dr. Howard Weiner in collaboration with Lpath, Inc. A peptide fragment of myelin oligodendrocyte glycoprotein (MOG35-55; […] (SEQ ID NO: 52)) is used to cause experimental EAE in mice. Mendel, I. et al., A myelin oligodendrocyte glycoprotein peptide induces typical chronic experimental autoimmune encephalomyelitis in H-2b mice: fine specificity and T cell receptor V beta expression of encephalitogenic T cells, Eur J Immunol. 1995 July; 25(7):1951-9. EAE was induced in mice by immunization with a peptide corresponding to amino acids 35-55 of myelin oligodendrocyte glycoprotein (MOG) peptide (MOG35-55) to induce chronic experimental autoimmune encephalomyelitis (EAE). Following immunization with MOG35-55, mice develop an acute episode of EAE that is followed by a gradually developing progressive disease thought to model several features of progressive multiple sclerosis. Mice were treated with antibody to S1P and treated mice were followed to study the effects of S1P-specific antibody on the clinical manifestations of this acute model of EAE. At the end of the experiment, treated mice were also used to analyze the effect of anti-S1P administration on the immune response.
In a first set of experiments, using 10 mice per group with an average weight of 20 gr, EAE was induced in C57BL/6J mice with 150 ug/mouse MOG35-55 in CFA along with […] pertussis toxin on days 0 and 2. Anti-S1P antibody LT1002 (Sphingomab™) was administered i.v. at a dosage of 75 mg/Kg on day-1, followed by i.p. dosing at 25 mg/Kg every 2 days. Treated mice were followed for 25 days to study the effects of S1P-specific antibodies on the clinical manifestations of this acute model of EAE. Clinical manifestations of the disease include flaccid tail, and limb paralysis which may be scored to give an objective evaluation of clinical symptoms. The standard evaluation of disease severity in the EAE model measures clinical behavior on a 0-6 scale: 0) normal; 1) flaccid tail; 2) abnormal gait, hind leg weakness; 3) partial paralysis, severe ataxia; 4) minimal hind leg movement after painful stimulus; 5) no hind leg movement; 6) moribund state with little or no movement. Means were compared between groups to determine the effect of treatment on clinical scores and body weight gain. Statistical significance of clinical scores and weight were resolved using biostatistical analysis.
At day 17, two representative mice were sacrificed to study the cellular immune response (proliferation and cytokines) and to analyze CNS pathology. Spinal cords were dissected and sectioned. Sections were stained with hematoxylin and eosin (H&E) to reveal inflammatory cells, with Luxol to visualize myelin, or with silver stain to visualize axons. Total levels of CD4+FoxP3+Treg cells were evaluated by FACS analysis of blood samples taken from the tail on day 17. At day 25, treated mice were analyzed to see the effect of anti-S1P administration on the immune response.
Injection of synthetic MOG peptide (amino acids 35-55 of myelin oligodendrocyte glycoprotein, referred to as MOG35-55) causes mice to develop significant specific T cell responses in addition to neurological symptoms. Spahn et al., (1999) Eur. J. Immunol 29:4060-4071. Anti-S1P administration was associated with a significant decrease in this proliferative recall response to MOG35-55. Mice were primed by injections of MOG peptide. The spleens were removed and homogenized, and splenocytes were pulsed with different amounts of MOG peptide. Subsequently, cells were pulsed with radiolabel and incubated before cells were harvested and label incorporation was assessed by scintillation counting. […] As measured in cpm, the recall proliferative response was decreased by approximately 36%, 38% and 22% after anti-S1P antibody treatment (at 4 ug/ml, 20 ug/ml and 100 ug/ml of MOG35-55, respectively).

[3] = 75 mg/Kg i.v. day -1, then 25 mg/Kg i.p. every 2 days

| Molecule | conditions of greatest stability (SE-HPLC) [1] | decrease in recall proliferative response to MOG35-55 (cpm) ([2]; 4 ug/ml MOG35-55) | decrease in recall proliferative response to MOG35-55 (cpm) ([2]; 20 ug/ml MOG35-55) [%] | decrease in recall proliferative response to MOG35-55 (cpm) ([2]; 100 ug/ml MOG35-55) [%] | EAE development [2, 3] | EAE severity score (0-6 scale) at plateau [2, 3] | circulating lymphocytes ([2]; antibody-treated animals) | demyelination in spinal cord ([2]; antibody-treated animals) | spleen CD4+ T cells, of lymphocytes in spleen ([2]; antibody-treated animals) | axonal loss ([2]; antibody-treated mice) | CD4+CD25+Foxp3+ Treg in spleen ([2]; mouse, in vivo) | IFNγ secretion by splenocytes upon MOG35-55 stimulation ([2]; mouse, in vivo) | IL-10 secretion by splenocytes upon MOG35-55 stimulation ([2]; mouse, in vivo) | IL-17 secretion by splenocytes upon MOG35-55 stimulation ([2]; mouse, in vivo) | circulating CD4+CD25+Foxp3+ Treg cells ([2]; mouse, in vivo) | decrease in spleen CD4+ T cells after antibody treatment ([2]; vs control animals) [%] | decrease in circulating lymphocytes after antibody treatment ([2]; vs control animals with EAE) [%] | decrease in axonal loss after treatment ([2]; vs untreated controls with EAE) [%] | decrease in demyelination after treatment ([2]; vs untreated controls with EAE) [%] | decrease in number of inflammatory cells/mm^2 in spinal cords ([2]; vs untreated controls with EAE) |
| --- | --- | --- | --- | --- | --- | --- | --- | --- | --- | --- | --- | --- | --- | --- | --- | --- | --- | --- | --- | --- |
| LT1009: humanized anti-S1P IgG1/kappa mAb with Cys to Ala in HCDR2, light chain with 5 backmutations; SEQ ID NO: 31/32 | most stable around pH 6 and 450 mM NaCl |  |  |  |  |  |  |  |  |  |  |  |  |  |  |  |  |  |  |  |
| B1 |  | approximately 36% | ~38 | ~22 | significant inhibition | approximately 2 | approximately 10% | less than 1% | approximately 7.6% | less than 2% | significant increase | lower levels | higher levels | lower levels | statistically nonsignificant increase | ~35 | ~26 | ~91 | ~92 | about 85% |
